Experimental data as given in the supplement of paper PMC9732359.
± gives the uncertainty stated by the source.

Test: protein stability index of a GFP-peptide fusion (yeast GPS) (PSI 1-4); higher = more stable; sorted into four equal gates, so the index is relative within each strain
Conditions: doa10∆
Summary of the method: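 The protein stability index combines read frequencies across sorting gates, each weighted by its gate number and then summed. To obtain those frequencies, a pooled yeast library of GFP fusions to tiled 17-residue yeast protein peptides, on a plasmid also expressing Cherry, was grown to mid-log phase in leucine-free medium. The cells were sorted into four equal gates by GFP/Cherry ratio before plasmid amplification by PCR and Illumina sequencing.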

Q: With ICNTLNIAKDLKWKKGI [SMC1] as the sequence, how does the protein stability index read?
A: 1.43 ± 0.1

Q: With IDEDIGNNVQENELVIT [RMP1] as the sequence, how does the protein stability index read?
A: 3.28 ± 0.17

Same assay, conditions: pdr5∆

Q: With GLELSNFKSYRGVTKVG [SMC1] as the sequence, how does the protein stability index read?
A: 3.09 ± 0.14

Q: Which protein stability index does the source give for GLESQIQEIKESVELPL [RPT2] here?
A: 2.3 ± 0.073

Q: Which protein stability index does the source give for GLLDESPNRLRVRTDDS [YML031W/NDC1] here?
A: 1.82 ± 0.15

Q: With GMKVKADRDESSPYAAM [RPS14B] as the sequence, how does the protein stability index read?
A: 1.09 ± 0.12

Q: Which protein stability index does the source give for GMMSTTGTARLNSMPNN [YJL039C/NUP192] here?
A: 2.99 ± 0.15

Q: For GMPHKFYQGKTGVVYNV [RPL21A], which protein stability index is on record?
A: 2.86 ± 0.077

Q: For GNASLKYIALQVIVDIF [YCG1], which protein stability index is on record?
A: 1.36 ± 0.076

Q: For GNDNNSDSNANAAVAGV [SWI3], which protein stability index is on record?
A: 3.35 ± 0.056

Q: With GNGNVSESDIINNLPPE [YCG1] as the sequence, how does the protein stability index read?
A: 2.85 ± 0.13

Q: For GNIQISEYNFLEGSVSL [DIS3], which protein stability index is on record?
A: 3.08 ± 0.091

Q: Which protein stability index does the source give for GNKKYRALRIETGNFSW [RPS8A] here?
A: 3.15 ± 0.044

Q: Which protein stability index does the source give for GNMGITTEMLDKLMVTS [MED6] here?
A: 3.55 ± 0.1

Q: Which protein stability index does the source give for GNPLSIGTLEEIIDDDH [RPT2] here?
A: 3.43 ± 0.14

Q: For GNVFSPIDNNIIFASTK [SNU114], which protein stability index is on record?
A: 2.97 ± 0.092

Q: Which protein stability index does the source give for GNVLLNATVVDSFKYEP [YLR335W/NUP2] here?
A: 3.02 ± 0.1

Q: With GNVTELYGTAIGARSQG [PRE5] as the sequence, how does the protein stability index read?
A: 2.09 ± 0.15

Q: For GPGGQAALRALARSGLR [RPS14B], which protein stability index is on record?
A: 2.59 ± 0.11

Q: Which protein stability index does the source give for GPKKNVFYAPNVKNYST [RPC34] here?
A: 2.56 ± 0.059

Q: With GPRNTEEKGWVPVTKLG [RPS2] as the sequence, how does the protein stability index read?
A: 3.46 ± 0.1

Q: Which protein stability index does the source give for GPVAAQFTKVIDEPIKS [FAS1] here?
A: 2.41 ± 0.092

Q: For GPVVAGINSKSGKPFIA [PUP3], which protein stability index is on record?
A: 3.27 ± 0.11

Q: With GQCRTELEGSFNKSAEL [YCS4] as the sequence, how does the protein stability index read?
A: 2.51 ± 0.095

Q: With GQLLSVKFLVYQGVYSM [YML031W/NDC1] as the sequence, how does the protein stability index read?
A: 1.75 ± 0.14

Q: For GQNCLDIDGIMDNPRKL [SNU114], which protein stability index is on record?
A: 3.43 ± 0.27

Q: For GQRDLDRIAAQTLEEDE [RPS19A], which protein stability index is on record?
A: 3.21 ± 0.091

Q: For GQSEASLLNLLNISPFT [RPP0], which protein stability index is on record?
A: 2.1 ± 0.057

Q: Which protein stability index does the source give for GRAGVPMEVMGLMLGEF [RPN11] here?
A: 2.12 ± 0.26

Q: With GRLLRAMFEICLKRGWG [BRR2] as the sequence, how does the protein stability index read?
A: 1.59 ± 0.091

Q: With GRLNTLVISLAATNETF [IRR1] as the sequence, how does the protein stability index read?
A: 1.38 ± 0.065

Q: Which protein stability index does the source give for GRLSLRSLTAYAPNLML [QCR10] here?
A: 1.9 ± 0.051

Q: With GRRLNIRQYALATAHIY [SSN8] as the sequence, how does the protein stability index read?
A: 1.32 ± 0.057

Q: For GRSDSNTEEKAELQSNL [YGL100W/SEH1], which protein stability index is on record?
A: 1.64 ± 0.051

Q: Which protein stability index does the source give for GRVKYTKRQKHFAWLPT [POP1] here?
A: 2.48 ± 0.081

Q: Which protein stability index does the source give for GRYAGKKVVIVKPHDEG [RPL27A] here?
A: 2.72 ± 0.21

Q: With GSEILGDLKLQVLLDEE [RPO21] as the sequence, how does the protein stability index read?
A: 3.35 ± 0.13

Q: With GSFKVVKGTNISEKDLV [RPO31] as the sequence, how does the protein stability index read?
A: 3.36 ± 0.14

Q: For GSIPSLTTQFVTDKYTA [YDL088C/ASM4], which protein stability index is on record?
A: 2.54 ± 0.066

Q: With GSKENYQELGSLQSSSQ [MED2] as the sequence, how does the protein stability index read?
A: 3.45 ± 0.098

Q: Which protein stability index does the source give for GSKIRVMWGKVTRTHGN [RPL33A] here?
A: 2.9 ± 0.076

Q: With GSNNAQTSRGLFGNNNT [YGL172W/NUP49] as the sequence, how does the protein stability index read?
A: 3.25 ± 0.074

Q: Which protein stability index does the source give for GSQKTFEIDDEHRIRVF [RPS6A] here?
A: 2.76 ± 0.14

Q: For GSTFKVNQEFIFEAISL [YJL039C/NUP192], which protein stability index is on record?
A: 2.31 ± 0.12

Q: Which protein stability index does the source give for GTANNNSNTTNQNSSTG [YJL041W/NSP1] here?
A: 3.37 ± 0.075

Q: For GTCNGDITTSIMDNFLE [RPN1], which protein stability index is on record?
A: 2.85 ± 0.057

Q: For GTFTADYSKPNLPPHYA [SSN2], which protein stability index is on record?
A: 2.28 ± 0.049

Q: With GTGLFGQQTAQPQQSTI [YGR119C/NUP57] as the sequence, how does the protein stability index read?
A: 3.13 ± 0.046

Q: Which protein stability index does the source give for GTLDKNSQTVSGTPITQ [SNF2] here?
A: 2.71 ± 0.055

Q: Which protein stability index does the source give for GTLWAHVLKTVDYGGAE [SNU114] here?
A: 1.32 ± 0.057

Q: With GTQQSNMYTSTQKTELE [SIR4] as the sequence, how does the protein stability index read?
A: 3.12 ± 0.047

Q: For GTYIQERNPSQRPQRRY [RPS10B], which protein stability index is on record?
A: 3.1 ± 0.042

Q: Which protein stability index does the source give for GVANTDTAGEESQQQDE [SWI3] here?
A: 3.55 ± 0.085

Q: With GVDDQILATNSLRILAK [YJL039C/NUP192] as the sequence, how does the protein stability index read?
A: 3.08 ± 0.08

Q: With GWSLVGRILQNLLHSYM [YML103C/NUP188] as the sequence, how does the protein stability index read?
A: 1.18 ± 0.06

Q: Which protein stability index does the source give for GYDRHITIFSPEGRLYQ [SCL1] here?
A: 2.84 ± 0.082

Q: Which protein stability index does the source give for GYFIINGSEKVLIAQER [RPB2] here?
A: 2.94 ± 0.17

Q: For GYIKNNKKIYQWNKLTS [POP6], which protein stability index is on record?
A: 2.91 ± 0.089

Q: Which protein stability index does the source give for GYRSRTRYMFQRDFRKH [RPL21A] here?
A: 3.19 ± 0.08

Q: For GYVSSLVEPSKVGQFDQ [FAS1], which protein stability index is on record?
A: 1.94 ± 0.082

Q: Which protein stability index does the source give for HAKFSPVSTASYRLLPQ [RPC40] here?
A: 1.75 ± 0.055

Q: For HANAAAVYFADTSGLKI [SIN4], which protein stability index is on record?
A: 2.56 ± 0.065

Q: For HARTAAVTHNLYYDEDI [PUP2], which protein stability index is on record?
A: 3.22 ± 0.17

Q: Which protein stability index does the source give for HASKAIGLPRHSLAYLL [RRP6] here?
A: 2.2 ± 0.048

Q: For HAYRDVLAQYHEAKERI [SNF6], which protein stability index is on record?
A: 3.43 ± 0.071

Q: Which protein stability index does the source give for HCGALNGVVKKAAAGAG [RPO31] here?
A: 2.38 ± 0.19

Q: With HCITSITLALADAGIEL [MTR3] as the sequence, how does the protein stability index read?
A: 1.86 ± 0.094

Q: Which protein stability index does the source give for HDADLEVSMNSIFAMGL [RPN1] here?
A: 2.69 ± 0.045

Q: For HDEKSDSLNEWIKFDQE [RPN7], which protein stability index is on record?
A: 3.29 ± 0.22

Q: Which protein stability index does the source give for HEDLVNSIESKNLSLQT [COR1] here?
A: 2.96 ± 0.074

Q: Which protein stability index does the source give for HESTSRTDQYTIDNIDS [YMR129W/POM152] here?
A: 2.9 ± 0.053

Q: Which protein stability index does the source give for HFENAKVIDLDTKLKAH [YIL149C/MLP2] here?
A: 2.73 ± 0.086

Q: For HFFSKSCSFFAKLSDTL [NUT1], which protein stability index is on record?
A: 1.77 ± 0.041

Q: With HFQDQKNKKIEVYTKTI [POP7] as the sequence, how does the protein stability index read?
A: 2.83 ± 0.12

Q: For HFVRDLGTIESAQAETE [DIS3], which protein stability index is on record?
A: 2.42 ± 0.13

Q: With HGGKMKPEIDENGTLLV [RPR2] as the sequence, how does the protein stability index read?
A: 3.14 ± 0.11

Q: For HGTSTSAEDEENIIQRL [CDC53], which protein stability index is on record?
A: 3.34 ± 0.059

Q: Which protein stability index does the source give for HHDYRSYYGIVCLMQIS [RRP6] here?
A: 1.67 ± 0.067

Q: For HIEKLENEFVVLLDARD [CDC53], which protein stability index is on record?
A: 3.05 ± 0.081

Q: With HILPEVPPVENFPVRQW [TAF14] as the sequence, how does the protein stability index read?
A: 3.05 ± 0.088

Q: For HKCDELITLFNKGELET [RPO31], which protein stability index is on record?
A: 3.15 ± 0.07

Q: Which protein stability index does the source give for HKHNIMKNENANPKKLA [CDC53] here?
A: 2.31 ± 0.049

Q: For HKLRESLPLIVFLRNRL [RPS4A], which protein stability index is on record?
A: 1.57 ± 0.053

Q: With HKSIELISNLLFSKNRN [YCS4] as the sequence, how does the protein stability index read?
A: 2.47 ± 0.047

Q: For HKTMSIVGVLQDDADPM [RPT2], which protein stability index is on record?
A: 1.3 ± 0.2

Q: Which protein stability index does the source give for HKVQTKLTRELEKKFPD [RPS7B] here?
A: 3.07 ± 0.093

Q: With HLKHENANDETTAVEDE [RPB4] as the sequence, how does the protein stability index read?
A: 3.08 ± 0.093

Q: For HNQSPRNTYQSAMGKQA [RPB2], which protein stability index is on record?
A: 2.77 ± 0.062

Q: Which protein stability index does the source give for HPKLIKNKSGKIFVETK [FAS1] here?
A: 2.76 ± 0.067

Q: For HQNVIIGSNGSGKSNFF [SMC3], which protein stability index is on record?
A: 2.7 ± 0.091

Q: Which protein stability index does the source give for HSLREYINGKATALANL [RPO31] here?
A: 3.21 ± 0.095

Q: For HTLCNRCGRRSFHVQKK [RPL37A], which protein stability index is on record?
A: 2.72 ± 0.048

Q: Which protein stability index does the source give for HTQANEPNSAKKIRFLQ [RGR1] here?
A: 3.51 ± 0.11

Q: Which protein stability index does the source give for HYDNTTRNSLGNVIQFI [RPO21] here?
A: 2.62 ± 0.043

Q: For IAASAFLSLLNLATKGM [REC8], which protein stability index is on record?
A: 1.52 ± 0.054

Q: For IAKSQDKKSCSVDDVLS [DPB4], which protein stability index is on record?
A: 3.15 ± 0.077

Q: For IATDGGRICRPLIIVSD [RET1], which protein stability index is on record?
A: 2.1 ± 0.037

Q: With ICIVGGYDDFQEEGSFE [FAS2] as the sequence, how does the protein stability index read?
A: 2.5 ± 0.11

Q: Which protein stability index does the source give for ICKNCSAILLSETDKRQ [RPO31] here?
A: 2.85 ± 0.058

Q: Which protein stability index does the source give for ICNTLNIAKDLKWKKGI [SMC1] here?
A: 1.26 ± 0.14
